Laboratory results from publication PMC3725402, “Evolution of the key alkaloid enzyme putrescine N-methyltransferase from spermidine synthase” (Frontiers in Plant Science, 2013).

Tested on: NCCCCN
Experiment: purified protein
Conditions: PMT activity, co-substrate SAM, 20 mM HEPES pH 8.0, 37°C, 2 mM DTT, 1 mM ascorbic acid

## DsPMT (putrescine N-methyltransferase) (Datura stramonium)
  Km: 190 ± 27.67 µM

## DsPMT (putrescine N-methyltransferase) (Datura stramonium; H108L)
  Km: 3130 ± 732.59 µM
